Results from publication PMC11933560.

Molecular target: mCherry-LHBs (HBV large envelope protein with mCherry at the N-terminus) (Hepatitis B virus) (UniProt P03138)
Test: FRET or BRET

mCherry-LHBs (HBV large envelope protein with mCherry at the N-terminus) (from UniProt P03138 1-389) (natural protein)
FRET efficiency: 35%
